T1: Human β-Klotho (human, UniProt Q86Z14 1-996)
T1 construct: human β-Klotho, recombinant protein bought from R&D Systems; source: bought: R&D Systems (cat# 5889-KB-050)
T1 sequence (looked up): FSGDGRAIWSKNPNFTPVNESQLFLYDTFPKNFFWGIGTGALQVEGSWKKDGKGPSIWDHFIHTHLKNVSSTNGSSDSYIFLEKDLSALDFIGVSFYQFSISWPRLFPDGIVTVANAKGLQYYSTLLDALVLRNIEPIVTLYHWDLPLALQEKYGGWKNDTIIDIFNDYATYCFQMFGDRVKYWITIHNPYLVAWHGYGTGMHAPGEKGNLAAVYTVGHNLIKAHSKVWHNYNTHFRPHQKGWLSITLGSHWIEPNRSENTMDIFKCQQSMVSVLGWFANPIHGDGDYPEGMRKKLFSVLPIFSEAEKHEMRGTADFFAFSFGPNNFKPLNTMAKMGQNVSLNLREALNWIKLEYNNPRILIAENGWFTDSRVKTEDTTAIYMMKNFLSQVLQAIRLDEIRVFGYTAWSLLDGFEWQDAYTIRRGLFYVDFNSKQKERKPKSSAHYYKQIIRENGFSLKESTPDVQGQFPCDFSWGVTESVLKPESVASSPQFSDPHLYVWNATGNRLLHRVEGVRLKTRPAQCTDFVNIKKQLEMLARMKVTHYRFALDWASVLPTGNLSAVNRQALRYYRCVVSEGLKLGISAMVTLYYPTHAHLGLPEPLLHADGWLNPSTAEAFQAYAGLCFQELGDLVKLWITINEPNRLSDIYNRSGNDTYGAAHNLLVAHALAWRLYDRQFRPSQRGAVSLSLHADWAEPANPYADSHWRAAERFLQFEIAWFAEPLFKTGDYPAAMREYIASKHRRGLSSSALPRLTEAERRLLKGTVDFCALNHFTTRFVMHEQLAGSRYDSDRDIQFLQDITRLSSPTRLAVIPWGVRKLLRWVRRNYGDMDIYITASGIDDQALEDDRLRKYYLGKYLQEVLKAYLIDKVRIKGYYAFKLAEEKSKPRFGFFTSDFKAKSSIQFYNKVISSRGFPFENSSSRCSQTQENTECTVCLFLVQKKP

B1: wild type human FGF21 purified through heat treatment (htFGF21) (ligand, UniProt Q9NSA1 33-209, looked up)
chain: DSSPLLQFGGQVRQRYLYTDDAQQTEAHLEIREDGTVGGAADQSPESLLQLKALKPGVIQILGVKTSRFLCQRPDGALYGSLHFDPEACSFRELLLEDGYNVYQSEAHGLPLHLPGNKSPHRDPAPRGPARFLPLPGLPPALPEPPGILAPQPPDVGSSDPLSMVGPSQGRSPSYAS
notes: human fibroblast growth factor 21 (FGF21), residues 33-209; The TEV site ENLYFQ/G stood between Trx and FGF21, so a Gly probably remains before residue 33 after cleavage (surmised); also called htWT; wild type htFGF21; not shown: Trx, N-terminal, cleaved
B2: htFGF21 variant with Q201H and A208T mutations (htM2) (ligand, human, UniProt Q9NSA1 33-209, looked up)
chain: DSSPLLQFGGQVRQRYLYTDDAQQTEAHLEIREDGTVGGAADQSPESLLQLKALKPGVIQILGVKTSRFLCQRPDGALYGSLHFDPEACSFRELLLEDGYNVYQSEAHGLPLHLPGNKSPHRDPAPRGPARFLPLPGLPPALPEPPGILAPQPPDVGSSDPLSMVGPSHGRSPSYTS
notes: human FGF21 with Q201H and A208T; A Gly from the TEV site probably remains at the N-terminus (surmised); not shown: Trx, N-terminal, cleaved
B3: htFGF21 variant with S195G, P199G, and S200G mutations (htM3) (ligand, human, UniProt Q9NSA1 33-209, looked up)
chain: DSSPLLQFGGQVRQRYLYTDDAQQTEAHLEIREDGTVGGAADQSPESLLQLKALKPGVIQILGVKTSRFLCQRPDGALYGSLHFDPEACSFRELLLEDGYNVYQSEAHGLPLHLPGNKSPHRDPAPRGPARFLPLPGLPPALPEPPGILAPQPPDVGSSDPLGMVGGGQGRSPSYAS
notes: human FGF21 with S195G, P199G and S200G; A Gly from the TEV site probably remains at the N-terminus (surmised); not shown: Trx, N-terminal, cleaved
B4: htFGF21 variant with S195G, P199G, S200G, Q201H, and A208T mutations (htM5) (ligand, human, UniProt Q9NSA1 33-209, looked up)
chain: DSSPLLQFGGQVRQRYLYTDDAQQTEAHLEIREDGTVGGAADQSPESLLQLKALKPGVIQILGVKTSRFLCQRPDGALYGSLHFDPEACSFRELLLEDGYNVYQSEAHGLPLHLPGNKSPHRDPAPRGPARFLPLPGLPPALPEPPGILAPQPPDVGSSDPLGMVGGGHGRSPSYTS
notes: human FGF21 with S195G, P199G, S200G, Q201H and A208T; A Gly from the TEV site probably remains at the N-terminus (surmised); also called M5 variant; not shown: Trx, N-terminal, cleaved
B5: wild type human FGF21 purified without heating (nFGF21) (ligand, UniProt Q9NSA1 33-209, looked up)
chain: DSSPLLQFGGQVRQRYLYTDDAQQTEAHLEIREDGTVGGAADQSPESLLQLKALKPGVIQILGVKTSRFLCQRPDGALYGSLHFDPEACSFRELLLEDGYNVYQSEAHGLPLHLPGNKSPHRDPAPRGPARFLPLPGLPPALPEPPGILAPQPPDVGSSDPLSMVGPSQGRSPSYAS
notes: human fibroblast growth factor 21 (FGF21), residues 33-209; differs only in that the 100 °C step was left out of the purification; The TEV site ENLYFQ/G stood between Trx and FGF21, so a Gly probably remains before residue 33 after cleavage (surmised); also called fibroblast growth factor 21; wild type FGF21; source: E. coli Rosetta (DE3), purified without heating; not shown: Trx, N-terminal, …

What was measured:
[1] = biological target: T1, Human β-Klotho; experiment: SPR; Biacore 8K; FGF21s covalently immobilised on CM5 chip by amine coupling (about 700-900 RU); human β-Klotho injected as 2.5-fold series 250 to 1.024 nM at 30 μl/min; 25 °C; HBS-EP+ (10 mM HEPES pH 7.4, 150 mM NaCl, 3 mM EDTA, 0.05% polysorbate 20); global fit, 1:1 Langmuir model; settings: both partners purified
[2] = biological target: T1, Human β-Klotho; experiment: cell-based or functional assay

Binder | Kd [1] | koff [1] | kon [1] | EC50 of FGFR1c/β-Klotho activation, luciferase reporter in modified HEK293 cells, 6 h [2]
B1 | 12.9 nM | 0.00155 s⁻¹ | 121000 M⁻¹ s⁻¹ | 2.74 ng/mL
B2 | 10.9 nM | 0.0013 s⁻¹ | 120000 M⁻¹ s⁻¹ | 1.37 ng/mL
B3 | 5.19 nM | 0.000785 s⁻¹ | 152000 M⁻¹ s⁻¹ | 0.75 ng/mL
B4 | 4.32 nM | 0.000707 s⁻¹ | 164000 M⁻¹ s⁻¹ | 0.52 ng/mL
B5 | 12.8 nM | 0.00159 s⁻¹ | 126000 M⁻¹ s⁻¹ | –

Source: publication PMC9849446, “Heating-mediated purification of active FGF21 and structure-based design of its variant with enhanced potency” (Scientific Reports, 2023)
